Reference: article doi:10.1101/2022.06.30.498311 (bioRxiv, 2022)

Target: the molecule itself
Test: crystal structure

B1: Sul1 (enzyme, UniProt P0C002 1-269, looked up)
chain: MVTVFGILNLTEDSFFDESRRLDPAGAVTAAIEMLRVGSDVVDVGPAASHPDARPVSPADEIRRIAPLLDALSDQMHRVSIDSFQPETQRYALKRGVGYLNDIQGFPDPALYPDIAEADCRLVVMHSAQRDGIATRTGHLRPEDALDEIVRFFEARVSALRRSGVAADRLILDPGMGFFLSPAPETSLHVLSNLQKLKSALGLPLLVSVSRKSFLGATVGLPVKDLGPASLAAELHAIGNGADYVRTHAPGDLRSAITFSETLAKFRSR
binding result: binds
